In patent US6328728A, “Composition and method for enhancing electrotransport agent delivery” (Alza Corporation, priority 1997, dated 2001):

Assay: Hydrophobicity by hydrophobic interaction chromatography (HIC), phenyl Superose column (retention time, ta/tm)
Type: physicochemical
Conditions: for HIC Retention Time / HIC Column Retention Time: 32° C.; for HIC Column Retention Time: pH 5.0, 4 mM piperazine-HCl
Method: The hydrophobicity of an agent (eg, an agent such as a polypeptide or protein in solution, as well as the relative increase or decrease thereof) is determined by passing the agent-containing solution through a chromatography column filled with a particular "hydrophobic interaction" bead material and measuring either (1) the time required for the agent to elute (ie, pass through) the column or (2) the volume of liquid (ie, the same liquid used in the agent-containing sample, but with the agent removed) required to be pumped through the column in order to elute the agent. For the purposes of the present invention, the hydrophobicity of an agent is defined in terms relative to the marker compound, N-acetyl tryptophanamide (sold by Sigma Chemical, St. Louis, Mo.), which has a somewhat moderate hydrophobicity. Hydrophobicity, as that term is used herein, is measured using a 5 mm diameter glass column having a length of 5 cm (ie, column volume of 1.0 mL) and packed with cross-linked agar beads having an average particle size of 13.5 μm. Examples of suitable hydrophobic bead materials include cross-linked agar gel beads (Superose 12) having hydrophobic ligands attached to the agar via chemically stable ether linkages ((Superose 12)--O--CH2 --CHOH--CH2 --O--R) such as alkyl-Superose wherein R is --CH2 --C(CH3)3 and phenyl-Superose wherein R is phenyl, both of which are sold in pre-packaged column form by Pharmacia Biotech, Inc. of Piscataway, N.J. Immediately downstream from the column is placed a flow cell which permits continuous UV absorbance measurements of the solution flowing out of the column. Suitable flow cells and UV absorbance detectors are sold by Perkin-Elmer Corp., Applied Biosystems, Foster City, Calif. Hydrophobicity measurements are conducted at 32° C. with the same buffer that is used in the electrotransport system which is used to deliver the agent (eg, transdermally) to the patient. The buffer strength used in the hydrophobicity measurements is 10 mM ionic strength. The term "certain hydrophobicity" as used herein, means that the time required for the agent to elute from the column, relative to the time required for N-acetyl tryptophanamide to elute, is as follows:
ta /tm >0.7, and preferably ta /tm >3
ta is the time at which the peak UV absorbance value is recorded for the beneficial agent in the flow cell, less the time required to initially fill the column with the agent-containing solution (ie, dead volume retention time); and
tm is the time at which the peak UV absorbance value is recorded for the N-acetyl tryptophanamide marker in the flow cell, less the time required to initially fill the column with the marker-containing solution (ie, dead volume retention time).
The above described measurement of agent hydrophobicity is substantially independent of column size and flow rate through the column.
One method of measuring the hydrophobicity of an agent such as a polypeptide or protein is by hydrophobic interaction chromatography (HIC). The principles and conditions associated with HIC are fully described in Protein Purification: Principles, High Resolution Methods, and Applications, Janson and Ryden, Eds., pp. 207-226 (1989), the pertinent portions of which are incorporated herein by reference. This method requires passing a composition through a hydrophobic interaction column and measuring the volume of solvent required for its complete elution. The hydrophobic sites on the agent are generally attracted to hydrophobic groups, such as aryl groups, affixed to beads placed within the column. A preferred HIC column material is phenyl-superose (Pharmacia, Sweden), a cross-linked polysaccharide which has been covalently modified to have pendant hydrophobic aryl groups. These pendant groups are similar to the hydrophobic or lipophilic species in the skin layers. Thus, this hydrophobic interaction column approximates, and is a good in vitro model for, an animal's skin layer as a barrier to transport of a polypeptide or protein. […]

[1] = pH 3.5, 10 mM sodium chloroacetate, TWEEN 20 0
[2] = pH 3.5, 10 mM sodium chloroacetate, TWEEN 20 1.5 mg/mL
[3] = pH 3.5, 10 mM sodium chloroacetate, TWEEN 20 2.66 mM
[4] = pH 3.5, 10 mM sodium chloroacetate, TWEEN 20 5.33 mM
[5] = pH 3.5, 10 mM sodium chloroacetate, TWEEN 20 6.66 mM
[6] = pH 3.5, 10 mM sodium chloroacetate, TWEEN 20 8.88 mM
[7] = pH 9.0, 10 mM sodium borate, TWEEN 20 0
[8] = pH 9.0, 10 mM sodium borate, TWEEN 20 1.5 mg/mL
[9] = pH 9.0, 10 mM sodium borate, TWEEN 20 2.66 mM
[10] = pH 9.0, 10 mM sodium borate, TWEEN 20 6.0 mg/mL
[11] = pH 9.0, 10 mM sodium borate, TWEEN 20 8.88 mM

Insulinotropin: the protein insulinotropin
HIC Retention Time [1]: 57.6 min | HIC Retention Time [2]: 25.6 min | HIC Retention Time [3]: 11.5 min | HIC Retention Time [4]: 6.1 min | HIC Retention Time [5]: 6.0 min | HIC Retention Time [6]: 4.4 min | HIC Retention Time, fractional change (% δ) [1]: 0 | HIC Retention Time, fractional change (% δ) [2]: 0.60 | HIC Retention Time, fractional change (% δ) [3]: 0.87 | HIC Retention Time, fractional change (% δ) [4]: 0.97 | HIC Retention Time, fractional change (% δ) [5]: 0.97 | HIC Retention Time, fractional change (% δ) [6]: 1.00 | HIC Retention Time [7]: 10.1 min | HIC Retention Time [8]: 9.4 min | HIC Retention Time [9]: 6.4 min | HIC Retention Time [10]: 4.8 min | HIC Retention Time [11]: 3.8 min | HIC Retention Time, fractional change (% δ) [7]: 0 | HIC Retention Time, fractional change (% δ) [8]: 0.11 | HIC Retention Time, fractional change (% δ) [9]: 0.59 | HIC Retention Time, fractional change (% δ) [10]: 0.84 | HIC Retention Time, fractional change (% δ) [11]: 1.00

Salmon Calcitonin [reference compound]
HIC Column Retention Time (dodecyl sulfobetaine 0, calcitonin 0.076 mM): 9.4 min | HIC Column Retention Time (dodecyl sulfobetaine 0.83 mM, calcitonin 0.076 mM): 12.4 min | HIC Column Retention Time (dodecyl sulfobetaine 3.23 mM, calcitonin 0.074 mM): 87.1 min | HIC Column Retention Time (dodecyl sulfobetaine 6.25 mM, calcitonin 0.072 mM): 64.1 min | HIC Column Retention Time (dodecyl sulfobetaine 9.77 mM, calcitonin 0.069 mM): 45.1 min | HIC Column Retention Time (dodecyl sulfobetaine 18.4 mM, calcitonin 0.062 mM): 28.8 min | HIC Column Retention Time (dodecyl sulfobetaine 26.4 mM, calcitonin 0.056 mM): 24.4 min
